Values quoted from earlier work as cited in US8853185B2, “Coferons and methods of making and using them” (Cornell University, priority 2008, dated 2014).
One block for each molecule: values may come before it.

Columns and labels:
Settings in all cases: read-out: DISSOCIATION CONSTANT (Kd)
NF2 = molecular target: T1, NF2 (Homo sapiens, UniProt P35240)
T1 sequence (P35240 1-595): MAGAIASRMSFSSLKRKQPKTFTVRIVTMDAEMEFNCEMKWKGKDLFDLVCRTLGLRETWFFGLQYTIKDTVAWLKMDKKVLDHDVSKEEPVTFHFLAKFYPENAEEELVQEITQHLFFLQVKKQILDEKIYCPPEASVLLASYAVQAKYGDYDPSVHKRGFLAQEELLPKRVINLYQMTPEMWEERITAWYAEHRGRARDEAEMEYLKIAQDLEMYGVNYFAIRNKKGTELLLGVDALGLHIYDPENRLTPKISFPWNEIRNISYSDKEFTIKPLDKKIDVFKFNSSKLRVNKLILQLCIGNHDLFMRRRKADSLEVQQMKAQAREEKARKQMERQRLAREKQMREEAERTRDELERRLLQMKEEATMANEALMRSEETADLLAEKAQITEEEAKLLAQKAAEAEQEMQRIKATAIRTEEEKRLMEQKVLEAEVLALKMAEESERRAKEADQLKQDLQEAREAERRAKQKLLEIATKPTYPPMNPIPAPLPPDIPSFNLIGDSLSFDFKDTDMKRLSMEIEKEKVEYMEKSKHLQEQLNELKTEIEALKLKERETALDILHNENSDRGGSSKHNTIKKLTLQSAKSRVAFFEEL

p53 = p53 (Homo sapiens, UniProt P04637)
ASK1 = molecular target: T2, ASK1 (Homo sapiens, UniProt Q99683)
T2 sequence (Q99683 1-1374): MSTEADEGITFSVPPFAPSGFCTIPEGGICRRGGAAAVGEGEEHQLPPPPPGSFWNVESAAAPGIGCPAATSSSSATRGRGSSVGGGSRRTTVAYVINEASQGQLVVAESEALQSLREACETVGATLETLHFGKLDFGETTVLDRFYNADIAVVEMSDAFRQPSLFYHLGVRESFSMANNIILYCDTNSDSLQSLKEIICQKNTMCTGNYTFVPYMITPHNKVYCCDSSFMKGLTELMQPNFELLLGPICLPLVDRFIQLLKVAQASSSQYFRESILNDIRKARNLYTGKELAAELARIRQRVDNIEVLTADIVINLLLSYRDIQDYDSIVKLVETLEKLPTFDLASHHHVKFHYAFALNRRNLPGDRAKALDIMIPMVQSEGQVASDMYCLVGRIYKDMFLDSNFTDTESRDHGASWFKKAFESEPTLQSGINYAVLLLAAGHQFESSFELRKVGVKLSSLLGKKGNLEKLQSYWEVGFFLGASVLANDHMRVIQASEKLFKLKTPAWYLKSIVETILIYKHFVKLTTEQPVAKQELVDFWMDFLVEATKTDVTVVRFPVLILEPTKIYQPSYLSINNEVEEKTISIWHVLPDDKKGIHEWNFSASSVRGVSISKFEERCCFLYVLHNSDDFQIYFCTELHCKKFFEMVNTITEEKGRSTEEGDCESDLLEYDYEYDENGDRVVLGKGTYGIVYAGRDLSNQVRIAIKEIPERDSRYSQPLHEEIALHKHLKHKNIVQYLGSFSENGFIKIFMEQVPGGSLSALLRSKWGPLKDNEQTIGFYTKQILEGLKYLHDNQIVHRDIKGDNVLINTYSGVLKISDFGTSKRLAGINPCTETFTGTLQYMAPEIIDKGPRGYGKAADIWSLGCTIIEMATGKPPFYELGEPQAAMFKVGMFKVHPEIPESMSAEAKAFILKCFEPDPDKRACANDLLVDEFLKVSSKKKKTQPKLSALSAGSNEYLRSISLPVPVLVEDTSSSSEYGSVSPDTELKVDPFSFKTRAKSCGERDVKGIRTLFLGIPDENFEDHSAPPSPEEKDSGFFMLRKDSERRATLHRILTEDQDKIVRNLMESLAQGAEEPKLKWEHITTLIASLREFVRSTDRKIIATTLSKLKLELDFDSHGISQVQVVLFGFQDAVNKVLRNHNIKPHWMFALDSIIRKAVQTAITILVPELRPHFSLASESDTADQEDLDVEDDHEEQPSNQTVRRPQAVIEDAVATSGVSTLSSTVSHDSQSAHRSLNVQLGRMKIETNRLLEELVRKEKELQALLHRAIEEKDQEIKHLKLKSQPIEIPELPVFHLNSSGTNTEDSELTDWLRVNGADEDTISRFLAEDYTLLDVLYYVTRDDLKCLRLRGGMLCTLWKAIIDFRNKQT

GABP β = GABP β (Homo sapiens, UniProt Q06547)
MKK4 = molecular target: T3, MKK4 (Homo sapiens, UniProt P45985)
T3 sequence (P45985 1-399): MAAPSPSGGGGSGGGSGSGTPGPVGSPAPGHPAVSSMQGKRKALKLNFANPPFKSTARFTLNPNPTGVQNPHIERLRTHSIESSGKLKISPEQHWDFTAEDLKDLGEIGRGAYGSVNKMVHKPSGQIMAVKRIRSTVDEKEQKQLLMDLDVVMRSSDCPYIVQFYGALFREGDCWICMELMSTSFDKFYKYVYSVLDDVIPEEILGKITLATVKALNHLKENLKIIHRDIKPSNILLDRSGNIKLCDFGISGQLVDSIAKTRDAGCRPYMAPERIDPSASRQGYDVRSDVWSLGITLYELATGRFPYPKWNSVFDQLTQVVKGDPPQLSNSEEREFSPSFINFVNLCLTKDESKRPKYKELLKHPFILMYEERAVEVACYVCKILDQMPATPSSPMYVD

p53, sequence (P04637 whole entry, species assumed): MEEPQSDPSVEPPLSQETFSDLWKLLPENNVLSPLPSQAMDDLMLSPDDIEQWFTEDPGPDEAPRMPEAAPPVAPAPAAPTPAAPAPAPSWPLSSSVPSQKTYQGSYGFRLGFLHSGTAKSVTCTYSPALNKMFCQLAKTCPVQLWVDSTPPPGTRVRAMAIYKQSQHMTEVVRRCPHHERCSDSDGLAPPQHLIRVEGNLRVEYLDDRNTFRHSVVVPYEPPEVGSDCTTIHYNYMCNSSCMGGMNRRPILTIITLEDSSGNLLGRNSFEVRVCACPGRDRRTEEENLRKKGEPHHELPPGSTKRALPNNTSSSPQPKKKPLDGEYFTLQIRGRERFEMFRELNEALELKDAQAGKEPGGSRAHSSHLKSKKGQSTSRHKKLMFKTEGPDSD
GABP β, sequence (Q06547 whole entry): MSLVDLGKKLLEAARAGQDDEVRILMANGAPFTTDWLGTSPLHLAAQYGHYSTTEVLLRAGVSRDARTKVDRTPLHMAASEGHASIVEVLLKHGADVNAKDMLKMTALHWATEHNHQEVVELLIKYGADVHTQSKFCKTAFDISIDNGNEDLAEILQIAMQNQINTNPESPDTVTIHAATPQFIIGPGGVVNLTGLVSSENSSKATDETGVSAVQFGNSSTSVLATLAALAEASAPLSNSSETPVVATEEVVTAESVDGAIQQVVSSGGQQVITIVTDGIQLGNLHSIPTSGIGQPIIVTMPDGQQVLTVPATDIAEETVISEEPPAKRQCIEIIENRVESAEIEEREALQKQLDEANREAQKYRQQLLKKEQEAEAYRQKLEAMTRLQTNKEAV

Kd (NF2): 3.7 nM
B1: MPP1: binding partner of NF2 (protein, UniProt Q00013 2-466, looked up)
55 kDa erythrocyte membrane …: TLKASEGESGGSMHTALSDLYLEHLLQKRSRPEAVSHPLNTVTEDMYTNGSPAPGSPAQVKGQEVRKVRLIQFEKVTEEPMGITLKLNEKQSCTVARILHGGMIHRQGSLHVGDEILEINGTNVTNHSVDQLQKAMKETKGMISLKVIPNQQSRLPALQMFMRAQFDYDPKKDNLIPCKEAGLKFATGDIIQIINKDDSNWWQGRVEGSSKESAGLIPSPELQEWRVASMAQSAPSEAPSCSPFGKKKKYKDKYLAKHSSIFDQLDVVSYEEVVRLPAFKRKTLVLIGASGVGRSHIKNALLSQNPEKFVYPVPYTTRPPRKSEEDGKEYHFISTEEMTRNISANEFLEFGSYQGNMFGTKFETVHQIHKQNKIAILDIEPQTLKIVRTAELSPFIVFIAPTDQGTQTEALQQLQKDSEAIRSQYAHYFDLSLVNNGVDETLKKLQEAFDQACSSPQWVPVSWVY

Kd (p53): 12700 nM
B2: HmtSSB: binding partner of p53 (protein, UniProt Q04837 17-148, looked up)
Single-stranded DNA-binding …: ESETTTSLVLERSLNRVHLLGRVGQDPVLRQVEGKNPVTIFSLATNEMWRSGDSEVYQLGDVSQKTTWHRISVFRPGLRDVAYQYVKKGSRIYLEGKIDYGEYMDKNNVRRQATTIIADNIIFLSDQTKEKE

Kd (MKK4): 35000 nM
B5: JNK3: binding partner of MKK4 (protein, UniProt P53779 1-464, looked up)
Mitogen-activated protein …: MSLHFLYYCSEPTLDVKIAFCQGFDKQVDVSYIAKHYNMSKSKVDNQFYSVEVGDSTFTVLKRYQNLKPIGSGAQGIVCAAYDAVLDRNVAIKKLSRPFQNQTHAKRAYRELVLMKCVNHKNIISLLNVFTPQKTLEEFQDVYLVMELMDANLCQVIQMELDHERMSYLLYQMLCGIKHLHSAGIIHRDLKPSNIVVKSDCTLKILDFGLARTAGTSFMMTPYVVTRYYRAPEVILGMGYKENVDIWSVGCIMGEMVRHKILFPGRDYIDQWNKVIEQLGTPCPEFMKKLQPTVRNYVENRPKYAGLTFPKLFPDSLFPADSEHNKLKASQARDLLSKMLVIDPAKRISVDDALQHPYINVWYDPAEVEAPPPQIYDKQLDEREHTIEEWKELIYKEVMNSEEKTKNGVVKGQPSPSGAAVNSSESLPPSSSVNDISSMSTDQTLASDTDSSLEASAGPLGCCR

More lines, now with the values behind:

B3: ASK1: binding partner of ASK1 (protein, UniProt Q99683 1-1374, looked up)
Mitogen-activated protein …: T2 sequence (Q99683 1-1374)
Kd (ASK1): 220 nM

B4: GABP β: binding partner of GABP β (protein, UniProt Q06547 2-395, looked up)
GA-binding protein subunit …: SLVDLGKKLLEAARAGQDDEVRILMANGAPFTTDWLGTSPLHLAAQYGHYSTTEVLLRAGVSRDARTKVDRTPLHMAASEGHASIVEVLLKHGADVNAKDMLKMTALHWATEHNHQEVVELLIKYGADVHTQSKFCKTAFDISIDNGNEDLAEILQIAMQNQINTNPESPDTVTIHAATPQFIIGPGGVVNLTGLVSSENSSKATDETGVSAVQFGNSSTSVLATLAALAEASAPLSNSSETPVVATEEVVTAESVDGAIQQVVSSGGQQVITIVTDGIQLGNLHSIPTSGIGQPIIVTMPDGQQVLTVPATDIAEETVISEEPPAKRQCIEIIENRVESAEIEEREALQKQLDEANREAQKYRQQLLKKEQEAEAYRQKLEAMTRLQTNKEAV
Kd (GABP β): 600 nM
